tested on: Escherichia coli TOP10; experiment: shrunken log2 fold change of peptide-encoding DNA abundance (4.5 h post-induction vs induction); higher = less antimicrobial activity (less host growth inhibition); details: time post-induction: 4.5 h; library: site-saturation at positions 5, 18, 19, 20
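Also: peptides expressed intracellularly from a pBAD plasmid library in pooled LB shake-flask culture, induced with 0.3% L-arabinose, DNA abundance read by NGS, three biological replicates, DESeq2 with apeglm shrinkage.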

Sequence	shrunken log2 fold change
RRIRVRPPRLPRPRPRPQFAPRP	0.133
RRIRKRPPRLPRPRPRPYHGPRP	-0.000893
RRIRGRPPRLPRPRPRPMIVPRP	0.554
RRIRGRPPRLPRPRPRPLDYPRP	0.0074
RRIRERPPRLPRPRPRPGHMPRP	-0.247
RRIRVRPPRLPRPRPRPAYKPRP	-0.181
RRIRHRPPRLPRPRPRPFPSPRP	0.0517
RRIRYRPPRLPRPRPRPDKEPRP	-0.478
RRIRHRPPRLPRPRPRPVIFPRP	-0.395
RRIRSRPPRLPRPRPRPRNKPRP	-0.0701
RRIRARPPRLPRPRPRPPERPRP	0.703
RRIRWRPPRLPRPRPRPEFKPRP	0.0019
RRIRTRPPRLPRPRPRPCHWPRP	-0.00233
RRIRFRPPRLPRPRPRPHAGPRP	-0.024
RRIRVRPPRLPRPRPRPYKYPRP	-0.835
RRIRNRPPRLPRPRPRPYYVPRP	-0.207
RRIRMRPPRLPRPRPRPEYTPRP	-0.0269
RRIRGRPPRLPRPRPRPHNSPRP	-0.0747
RRIRNRPPRLPRPRPRPLQAPRP	-0.0119
RRIRQRPPRLPRPRPRPPNNPRP	-0.259
RRIRRRPPRLPRPRPRPRQLPRP	0.394
RRIRARPPRLPRPRPRPEACPRP	1.24
RRIRFRPPRLPRPRPRPDKIPRP	-0.0546
RRIRVRPPRLPRPRPRPMYIPRP	-0.0844
RRIRDRPPRLPRPRPRPYRYPRP	-0.0188

Sequence	shrunken log2 fold change
RRIRIRPPRLPRPRPRPDGVPRP	-0.0166
RRIRHRPPRLPRPRPRPLHTPRP	0.143
RRIRTRPPRLPRPRPRPIIFPRP	-0.0206
RRIRSRPPRLPRPRPRPPGPPRP	0.64
RRIRTRPPRLPRPRPRPYRAPRP	-0.0709
RRIRVRPPRLPRPRPRPAVPPRP	0.0151
RRIRQRPPRLPRPRPRPPNVPRP	-0.0755
RRIRKRPPRLPRPRPRPGRKPRP	0.0872
RRIRRRPPRLPRPRPRPHFFPRP	0.149
RRIRNRPPRLPRPRPRPGCWPRP	0.55
RRIRHRPPRLPRPRPRPGNGPRP	0.278
RRIRIRPPRLPRPRPRPVLSPRP	-0.311
RRIRSRPPRLPRPRPRPRVNPRP	-0.189
RRIRSRPPRLPRPRPRPPFYPRP	-0.154
RRIRQRPPRLPRPRPRPYCTPRP	-0.863
RRIRGRPPRLPRPRPRPHHNPRP	-0.372
RRIRCRPPRLPRPRPRPGHMPRP	-0.0628
RRIRVRPPRLPRPRPRPYHAPRP	-0.00207
RRIRCRPPRLPRPRPRPLWHPRP	-0.091
RRIRRRPPRLPRPRPRPNDMPRP	0.13
RRIRNRPPRLPRPRPRPAELPRP	-0.0198
RRIRKRPPRLPRPRPRPNYQPRP	-0.0219
RRIRMRPPRLPRPRPRPPGHPRP	1.03
RRIRERPPRLPRPRPRPPDHPRP	-0.0455
RRIRARPPRLPRPRPRPTRAPRP	1

Sequence	shrunken log2 fold change
RRIRTRPPRLPRPRPRPHWSPRP	-0.147
RRIRPRPPRLPRPRPRPWPFPRP	0.108
RRIRSRPPRLPRPRPRPTCKPRP	0.107
RRIRARPPRLPRPRPRPGVNPRP	-0.238
RRIRYRPPRLPRPRPRPVIQPRP	-0.607
RRIRLRPPRLPRPRPRPFFAPRP	0.169
RRIRKRPPRLPRPRPRPAAPPRP	1.6
RRIRYRPPRLPRPRPRPVHRPRP	-0.462
RRIRLRPPRLPRPRPRPGMMPRP	0.0343
RRIRKRPPRLPRPRPRPFFMPRP	0.112
RRIRQRPPRLPRPRPRPFAGPRP	0.0242
RRIRVRPPRLPRPRPRPTINPRP	-0.286
RRIRIRPPRLPRPRPRPNFNPRP	-0.745
RRIRTRPPRLPRPRPRPAWDPRP	0.454
RRIRCRPPRLPRPRPRPYMHPRP	-0.31
RRIRRRPPRLPRPRPRPCMQPRP	0.23
RRIRIRPPRLPRPRPRPADPPRP	-0.071
RRIRKRPPRLPRPRPRPTWKPRP	0.107
RRIRNRPPRLPRPRPRPACVPRP	0.0235
RRIRQRPPRLPRPRPRPNEWPRP	-0.00822
RRIRWRPPRLPRPRPRPMILPRP	-0.14
RRIRKRPPRLPRPRPRPIISPRP	-0.132
RRIRARPPRLPRPRPRPRNMPRP	0.263
RRIRSRPPRLPRPRPRPCHFPRP	-0.186
RRIRIRPPRLPRPRPRPDCDPRP	-0.242
